Measured values taken from publication PMC10011503, “A novel compound targets the feline infectious peritonitis virus nucleocapsid protein and inhibits viral replication in cell culture” (The Journal of Biological Chemistry, 2023).

Columns and labels:
FCoV N [1] = target: T1, FCoV N (Feline infectious peritonitis virus (strain 79-1146), UniProt P25909); assay: biolayer interferometry, His-tagged N immobilized on Ni-NTA biosensor; assay type: binding; settings: read-out: Kd ± SD
From the text: biolayer interferometry, His-tagged N immobilized on Ni-NTA biosensor on FCoV N

FCoV N [2] = target: T1, FCoV N; assay: filter binding, Lineweaver-Burk secondary plot, N with radiolabeled vRNA […]' NCR
FCoV N [3] = target: T1, FCoV N; assay: biolayer interferometry, inhibition of N binding to immobilized biotinylated vRNA […]' NCR
[4] = target: T2, FCoV nucleocapsid protein N (Feline alphacoronavirus (FCoV/FIPV) …, UniProt P25909 1-377); assay: filter binding; 80 mM NaCl; Filter binding: 40 mM Tris-HCl pH 7.4, 80 mM NaCl (160, 320 in series), 20 mM KCl, 1 mM DTT, room temperature, 30-45 min; BLI: 20 mM Tris-HCl pH 7.4, 80 mM NaCl, 20 mM KCl, 1 mM DTT, room temperature; settings: protein: recombinant; tags: C-terminal His (pET-30a(+), NdeI/HindIII); chain copies: 2; label: [alpha-32P]GTP, internal
T2 sequence: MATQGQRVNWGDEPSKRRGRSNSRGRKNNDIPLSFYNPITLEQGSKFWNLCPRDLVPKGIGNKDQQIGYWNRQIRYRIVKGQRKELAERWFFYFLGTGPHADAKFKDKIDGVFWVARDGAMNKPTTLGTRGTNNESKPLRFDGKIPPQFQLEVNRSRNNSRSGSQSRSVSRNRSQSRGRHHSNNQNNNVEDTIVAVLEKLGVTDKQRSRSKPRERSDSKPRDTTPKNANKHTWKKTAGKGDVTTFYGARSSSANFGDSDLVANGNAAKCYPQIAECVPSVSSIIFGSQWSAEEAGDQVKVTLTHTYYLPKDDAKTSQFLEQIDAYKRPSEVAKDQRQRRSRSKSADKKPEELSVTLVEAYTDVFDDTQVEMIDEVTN

[5] = target: T2, FCoV nucleocapsid protein N; assay: filter binding; 160 mM NaCl; Filter binding: 40 mM Tris-HCl pH 7.4, 80 mM NaCl (160, 320 in series), 20 mM KCl, 1 mM DTT, room temperature, 30-45 min; BLI: 20 mM Tris-HCl pH 7.4, 80 mM NaCl, 20 mM KCl, 1 mM DTT, room temperature; settings: protein: recombinant; tags: C-terminal His (pET-30a(+), NdeI/HindIII); chain copies: 2; label: [alpha-32P]GTP, internal
[6] = target: T2, FCoV nucleocapsid protein N; assay: filter binding; 320 mM NaCl; Filter binding: 40 mM Tris-HCl pH 7.4, 80 mM NaCl (160, 320 in series), 20 mM KCl, 1 mM DTT, room temperature, 30-45 min; BLI: 20 mM Tris-HCl pH 7.4, 80 mM NaCl, 20 mM KCl, 1 mM DTT, room temperature; settings: protein: recombinant; tags: C-terminal His (pET-30a(+), NdeI/HindIII); chain copies: 2; label: [alpha-32P]GTP, internal
[7] = target: T2, FCoV nucleocapsid protein N; assay: BLI; 80 mM NaCl; kass 3.195e5 M-1s-1, kdis 5.931e-3 s-1; Filter binding: 40 mM Tris-HCl pH 7.4, 80 mM NaCl (160, 320 in series), 20 mM KCl, 1 mM DTT, room temperature, 30-45 min; BLI: 20 mM Tris-HCl pH 7.4, 80 mM NaCl, 20 mM KCl, 1 mM DTT, room temperature; settings: protein: recombinant; tags: C-terminal His (pET-30a(+), NdeI/HindIII); chain copies: 2

## O=C(O)c1cccc2c1NC(c1cccc(Br)c1)C1CC=CC21 (stereo not shown) [K31, 4-(3-Bromophenyl)-3a,4,5,9b-tetrahydro-3H-cycloppenta [c] quinoline-6-carboxylix acid]
FCoV N [1]
  Kd: 350 ± 17 nM
FCoV N [2]
  Ki: ~246 nM
FCoV N [3]
  IC50: ~850 nM

## ACUUUUAAAGUAAAGUGAGUGUAGCGUGGCUAUAAC (ssRNA) [vRNA 5' NCR (36 nt, radiolabeled)]
[4]
  Kd: 29 ± 1.6 nM
[5]
  Kd: 30.7 ± 7.5 nM
[6]
  Kd: 35 ± 7 nM

## ACUUUUAAAGUAAAGUGAGUGUAGCGUGGCUAUAAC (ssRNA) [vRNA 5' NCR (36 nt, biotinylated)]
[7]
  Kd: 18 ± 1.8 nM
